Numbering of substitutions follows the chain as printed.
B1: soluble MICA generated by pKK37 (loop 3.2 in loop 1) (designed binder)
chain: HHHHHHEPHSLRYNLTVLSWDGSVQSGFLTEVHLDGQPFLRCDRQKCRAKPQGQWAEDVLGNKTWDRETRDLTGNGKDLRMTLAHIKDQKEGLHSLQEIRVCEIHEDNSTRSSQHFYYDGELFLSQNLETEEWTMPQSSRAQTLAMNVRNFLKEDAMKTKTHYHAMHADCLQELRRYLKSGVVLRRTVPPMVNVTRTSRGDHPRTQVTCRASGFYPWNITLSWRQDGVSLSHDTQQWGDVLPDGNGTYQTWVATRICQGEEQRFTCYMEHSGNHSTHPVPSGK
B2: soluble MICA generated by pKK35 (His10sp in loop 3) (designed binder)
chain: EPHSLRYNLTVLSWDGSVQSGFLTEVHLDGQPFLRCDRQKCRAKPQGQWAEDVLGNKTWDRETRDLTGNGKDLRMTLAHIKDQKEGLHSLQEIRVCEIHEDNSTRSSQHFYYDGELFLSQNLETKEWTMPQSSRAQTLAMNVRNFLKEDAMKTKTHYHAMHADCLQELRRYLKSGVVLRRTVPPMVNVTRSEASEGNITVTCRASGFYPWNITLSWRQDGVSLSHDTQQWGDVLPDGNGTYQTWVATRISGGSGGGSHHHHHHHHHHSGGSGGGCYMEHSGNHSTHPVPSGK
B3: soluble MICA generated by pKK38 (loop 3.3 in loop 1) (designed binder)
chain: HHHHHHEPHSLRYNLTVLSWDGSVQSGFLTEVHLDGQPFLRCDRQKCRAKPQGQWAEDVLGNKTWDRETRDLTGNGKDLRMTLAHIKDQKEGLHSLQEIRVCEIHEDNSTRSSQHFYYDGELFLSQNLETEEWTMPQSSRAQTLAMNVRNFLKEDAMKTKTHYHAMHADCLQELRRYLKSGVVLRRTVPPMVNVTRVPRGDSDLTVTCRASGFYPWNITLSWRQDGVSLSHDTQQWGDVLPDGNGTYQTWVATRICQGEEQRFTCYMEHSGNHSTHPVPSGK
B4: soluble MICA generated by pKK42 (loop 5.3 in loop 1) (designed binder)
chain: B3 chain with R196H, V197L, P198A, S202D, D203L, L204T, T205Y
B5: soluble MICA generated by pKK39 (loop 3.4 in loop 1) (designed binder)
chain: B3 chain with V197S, P198A, L204H, T205R
B6: soluble MICA generated by pKK40 (loop 5.1 in loop 1) (designed binder)
chain: B3 chain with R196V, V197T, P198R, R199G, G200D, D201T, S202F, D203T, L204Q, T205S
B7: soluble MICA generated by pKK41 (loop 5.2 in loop 1) (designed binder)
chain: HHHHHHEPHSLRYNLTVLSWDGSVQSGFLTEVHLDGQPFLRCDRQKCRAKPQGQWAEDVLGNKTWDRETRDLTGNGKDLRMTLAHIKDQKEGLHSLQEIRVCEIHEDNSTRSSQHFYYDGELFLSQNLETEEWTMPQSSRAQTLAMNVRNFLKEDAMKTKTHYHAMHADCLQELRRYLKSGVVLRRTVPPMVNVTRGDTFTQSVTCRASGFYPWNITLSWRQDGVSLSHDTQQWGDVLPDGNGTYQTWVATRICQGEEQRFTCYMEHSGNHSTHPVPSGK

Legend:
integrin αVβ3 = biological target: T1, integrin αVβ3 (UniProt P06756 31-992; P05106 27-718); experiment: ELISA, integrin coated, anti-MICA-HRP
T1 construct: Coated on the ELISA plate
T1 sequence (P06756 31-992, chain 1 of 2): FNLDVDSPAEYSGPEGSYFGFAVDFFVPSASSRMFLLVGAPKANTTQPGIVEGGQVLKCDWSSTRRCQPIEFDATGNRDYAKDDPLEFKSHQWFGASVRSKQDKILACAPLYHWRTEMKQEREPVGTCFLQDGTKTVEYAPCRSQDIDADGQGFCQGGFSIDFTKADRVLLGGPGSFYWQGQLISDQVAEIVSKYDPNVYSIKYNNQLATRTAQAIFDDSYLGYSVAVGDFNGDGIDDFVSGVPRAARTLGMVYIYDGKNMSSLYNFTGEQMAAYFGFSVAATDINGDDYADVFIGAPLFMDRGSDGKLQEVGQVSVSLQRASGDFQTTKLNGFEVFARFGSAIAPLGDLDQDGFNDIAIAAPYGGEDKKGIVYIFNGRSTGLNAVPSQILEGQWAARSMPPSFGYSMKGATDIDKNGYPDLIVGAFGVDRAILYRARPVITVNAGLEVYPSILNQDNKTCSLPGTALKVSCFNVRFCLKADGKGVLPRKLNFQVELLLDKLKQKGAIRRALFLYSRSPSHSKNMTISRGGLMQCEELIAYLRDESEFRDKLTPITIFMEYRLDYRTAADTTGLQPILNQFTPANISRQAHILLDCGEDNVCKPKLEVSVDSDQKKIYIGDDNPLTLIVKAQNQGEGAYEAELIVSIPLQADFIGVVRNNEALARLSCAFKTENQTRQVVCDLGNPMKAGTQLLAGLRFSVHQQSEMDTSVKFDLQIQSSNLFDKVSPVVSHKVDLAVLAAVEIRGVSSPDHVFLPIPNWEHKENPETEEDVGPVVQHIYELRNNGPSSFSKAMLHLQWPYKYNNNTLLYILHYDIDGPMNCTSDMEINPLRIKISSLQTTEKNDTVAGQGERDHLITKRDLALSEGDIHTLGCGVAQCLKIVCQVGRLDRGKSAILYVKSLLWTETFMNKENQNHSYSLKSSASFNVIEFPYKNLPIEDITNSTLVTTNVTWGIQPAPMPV
T1 sequence (P05106 27-718, chain 2 of 2): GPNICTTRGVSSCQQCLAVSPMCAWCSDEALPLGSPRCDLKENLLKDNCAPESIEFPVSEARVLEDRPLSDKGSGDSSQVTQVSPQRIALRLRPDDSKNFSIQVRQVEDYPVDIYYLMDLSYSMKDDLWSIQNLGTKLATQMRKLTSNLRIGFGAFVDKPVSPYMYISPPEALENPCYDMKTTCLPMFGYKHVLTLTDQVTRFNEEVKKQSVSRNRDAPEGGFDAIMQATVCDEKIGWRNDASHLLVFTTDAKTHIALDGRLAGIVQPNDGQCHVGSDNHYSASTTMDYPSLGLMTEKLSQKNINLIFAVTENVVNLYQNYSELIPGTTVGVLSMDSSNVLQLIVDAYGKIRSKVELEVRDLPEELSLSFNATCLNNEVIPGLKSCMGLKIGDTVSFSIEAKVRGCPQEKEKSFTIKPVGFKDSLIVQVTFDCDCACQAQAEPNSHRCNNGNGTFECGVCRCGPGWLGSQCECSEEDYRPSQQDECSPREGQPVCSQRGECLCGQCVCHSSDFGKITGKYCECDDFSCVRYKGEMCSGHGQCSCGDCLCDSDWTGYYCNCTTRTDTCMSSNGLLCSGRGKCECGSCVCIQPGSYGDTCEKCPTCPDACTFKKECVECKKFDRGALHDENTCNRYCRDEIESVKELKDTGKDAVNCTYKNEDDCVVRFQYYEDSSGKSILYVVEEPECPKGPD

integrin αVβ5 = biological target: T2, integrin αVβ5 (UniProt P06756 31-992; P18084 24-719); experiment: ELISA, integrin coated, anti-MICA-HRP
T2 construct: Coated on the ELISA plate
T2 sequence (P06756 31-992, chain 1 of 2): as the sequence (P06756 31-992, chain 1 of 2) above
T2 sequence (P18084 24-719, chain 2 of 2): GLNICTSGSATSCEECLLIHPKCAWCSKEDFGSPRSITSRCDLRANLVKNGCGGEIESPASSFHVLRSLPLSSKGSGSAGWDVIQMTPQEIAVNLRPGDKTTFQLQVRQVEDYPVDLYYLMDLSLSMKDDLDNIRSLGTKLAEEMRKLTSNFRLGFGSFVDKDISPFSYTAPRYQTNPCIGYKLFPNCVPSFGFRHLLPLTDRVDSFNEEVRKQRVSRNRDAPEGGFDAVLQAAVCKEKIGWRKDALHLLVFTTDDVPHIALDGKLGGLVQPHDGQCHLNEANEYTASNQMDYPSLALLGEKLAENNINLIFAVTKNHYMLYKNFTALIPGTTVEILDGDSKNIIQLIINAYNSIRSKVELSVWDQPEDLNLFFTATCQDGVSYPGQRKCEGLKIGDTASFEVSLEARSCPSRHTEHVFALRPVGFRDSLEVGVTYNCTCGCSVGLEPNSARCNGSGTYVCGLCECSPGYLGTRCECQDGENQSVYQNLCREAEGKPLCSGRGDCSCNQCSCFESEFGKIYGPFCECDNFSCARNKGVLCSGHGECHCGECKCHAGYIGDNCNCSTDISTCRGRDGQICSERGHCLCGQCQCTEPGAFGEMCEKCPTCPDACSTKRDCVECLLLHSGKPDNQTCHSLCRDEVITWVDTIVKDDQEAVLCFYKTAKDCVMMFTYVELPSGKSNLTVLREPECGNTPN

Row | Binder | signal (integrin αVβ3) [OD] | signal/ng (integrin αVβ3) [signal/ng] | signal (integrin αVβ5) [OD] | signal/ng (integrin αVβ5) [signal/ng]
1 | B1 | 0.777 | 22.4 | 0.779 | 22.4
2 | B2 | 0.419 | 2.46 | 0.392 | 2.31
3 | B3 | 0.291 | 30.7 | 0.291 | 30.7
4 | B4 | 0.526 | 21.2 | 0.565 | 22.8
5 | B5 | 0.482 | 18 | 0.528 | 19.7
6 | B6 | 0.485 | 19.5 | 0.675 | 27.1
7 | B7 | 0.516 | 17.7 | 0.65 | 22.4
